Data published in patent publication US20070265189A1 (published 2007).

Target: T1, soluble human insulin receptor-immunoglobulin heavy chain chimera (sIR-Fc; Bass et al., 1996) (human, UniProt P06213 28-956, limits assumed)
T1 construct: extracellular domain; also called soluble IR (Bass construct); not shown: immunoglobulin heavy chain constant domains
Assay: phage ELISA

IR/IGF-1R comparison | Ratio over Background | Binder
0.5 | 1 | HLADGQFHEKFYDWFERQISSRCNDC [H2CA-3-E11-IGFR]
0.3 | 3.3 | GFREGSFYDWFQAQVT [E4Dα-2-D11-IR]
< 0.1 | 1.3 | FFYDCLAALLQGVARYHDLCAVEIT [20C-4-C7-IGFR]
0.1 | 1.1 | VEGRGLFYDLLRQLLARRQNG [20E2B-3-C6-IGFR]
0.1 | 1.1 | GVRAMSFYDALVSVLGLGPSG [20E2B-1-A6-IGFR]
0.1 | 1.7 | RCEEKQAEVGPSSDPFYHKMSELLGCR [B6Hα-3-E9-IR]
0.1 | 1.6 | LQPCSGFYECIERLIGVKLSG [20E2Bβ-4-G7-IR]
0.4 | 12 | VERSASSQDGNFYDWFVVQIR [A6S-2-D1-IR]
0.1 | 1.3 | QGGSASFYDAIDRLLRMRIGG [20E2A-4-F11-IGFR]
0.1 | 0.7 | VGRASGFPENFYDWFGRQLSLQSGEQ [H2CA-4-H6-IGFR]
0 | 1 | CCTTEMVVMDARDDPFYHKLSELVTGG [B6Hα-1-B5-IR]
0.3 | 2.2 | LGYQEPFQQNFYDWFVRQVSGAENAG [H2CA-3-E8-IGFR]
0.3 | 1.6 | AICDAGFHEHFYDWFALQVSDCGRQS [H2CA-2-B11-IGFR]
0.1 | 1.8 | YRGMLVLGRSSDGAGKVAFERPARIGQTVFAVNFYDWFV [A6L-0-E6-IR]
0.1 | 0.6 | GNGDGMFYQLLSLLVGRDMHV [20E2B-3-02-IGFR]
0.5 | 1.6 | FRTLAAQHDSFYDWFDRQVSGAAGER [H2CA-3-C11-IGFR]
0.1 | 1.2 | LKDGFYDYFWQRLHLGS [NNRPγ-4-B11-IR]
0.1 | 1.1 | KLHNLMFYYGLQRLVWGAGLG [20E2B-4-H3-IGFR]
0.4 | 9.8 | TSEVQRRSQDNFYDWFVAQVA [A6S-3-E2-IR]
0.4 | 13.5 | EAASLGSQDRNFYDWFVRQVV [A6S-2-D11-IR]
0.1 | 2.4 | RLFYCGIQALGANLGYSGCV [R20α-4-20A12-IR]
0.1 | 1.5 | RGQSDAFYSGLWALIGLSDG [R20β-4-A6-IR]
0.1 | 1 | RGCNDDGGKGWSDDPFYHKLSELICGG [B6Hα-1-A2-IR]
0.1 | 1.9 | DRDFCRFYERLTALVGGQVDGGWPC [20C-3-F6-IGFR]
0.3 | 1 | GAPVDQLHEDFYDWFVRQVSQAATG [H2CA-2-B2-IGFR]
< 0.1 | 1.2 | TFYSCLASLLTGTPQPNRGPWERCR [20C-3-G3-IGFR]
0.3 | 1.9 | SQAGSAFYAWFDQVLRTVHSA [20E2Bβ-4-G6-IR]

Target: T2, Soluble IGF-1R (sIGF-1R), R&D Systems Cat. # 391-GR/CF (UniProt P08069 31-935, limits assumed)
T2 construct: extracellular domain
Assay: phage ELISA

IGF-1R/IR comparison | Ratio over Background | Binder
2.2 | 2.2 | HLADGQFHEKFYDWFERQISSRCNDC [H2CA-3-E11-IGFR]
3.4 | 11.1 | GFREGSFYDWFQAQVT [E4Dα-2-D11-IR]
21.8 | 28 | FFYDCLAALLQGVARYHDLCAVEIT [20C-4-C7-IGFR]
3 | 5.6 | RGAVAGFHDQFYDWFDRQVSRVHKFG [H2CA-4-H9-IGFR]
14.8 | 16.8 | VEGRGLFYDLLRQLLARRQNG [20E2B-3-C6-IGFR]
16.8 | 18.1 | GVRAMSFYDALVSVLGLGPSG [20E2B-1-A6-IGFR]
14.2 | 24.2 | RCEEKQAEVGPSSDPFYHKMSELLGCR [B6Hα-3-E9-IR]
15.8 | 25.2 | LQPCSGFYECIERLIGVKLSG [20E2Bβ-4-G7-IR]
13 | 26 | YRGMLVLGRISGGAGKAASERPARIGQKVSAVNFYDWFV [A6L-0-H3-IR]
2.6 | 30.6 | VERSASSQDGNFYDWFVVQIR [A6S-2-D1-IR]
14.6 | 18.8 | QGGSASFYDAIDRLLRMRIGG [20E2A-4-F11-IGFR]
14.6 | 10.5 | VGRASGFPENFYDWFGRQLSLQSGEQ [H2CA-4-H6-IGFR]
20.5 | 20.5 | CCTTEMVVMDARDDPFYHKLSELVTGG [B6Hα-1-B5-IR]
2.9 | 6.3 | LGYQEPFQQNFYDWFVRQVSGAENAG [H2CA-3-E8-IGFR]
3 | 4.6 | AICDAGFHEHFYDWFALQVSDCGRQS [H2CA-2-B11-IGFR]
17 | 31 | YRGMLVLGRSSDGAGKVAFERPARIGQTVFAVNFYDWFV [A6L-0-E6-IR]
13.8 | 8.9 | GNGDGMFYQLLSLLVGRDMHV [20E2B-3-02-IGFR]
2.1 | 3.3 | FRTLAAQHDSFYDWFDRQVSGAAGER [H2CA-3-C11-IGFR]
15.5 | 18.7 | LKDGFYDYFWQRLHLGS [NNRPγ-4-B11-IR]
13.9 | 14.8 | KLHNLMFYYGLQRLVWGAGLG [20E2B-4-H3-IGFR]
2.5 | 24.7 | TSEVQRRSQDNFYDWFVAQVA [A6S-3-E2-IR]
2.8 | 37.4 | EAASLGSQDRNFYDWFVRQVV [A6S-2-D11-IR]
16.6 | 39.9 | RLFYCGIQALGANLGYSGCV [R20α-4-20A12-IR]
17.3 | 25.9 | RGQSDAFYSGLWALIGLSDG [R20β-4-A6-IR]
14.6 | 14.6 | RGCNDDGGKGWSDDPFYHKLSELICGG [B6Hα-1-A2-IR]
14.1 | 26.1 | DRDFCRFYERLTALVGGQVDGGWPC [20C-3-F6-IGFR]
3.5 | 3.4 | GAPVDQLHEDFYDWFVRQVSQAATG [H2CA-2-B2-IGFR]
27 | 32.3 | TFYSCLASLLTGTPQPNRGPWERCR [20C-3-G3-IGFR]
3.3 | 6.2 | SQAGSAFYAWFDQVLRTVHSA [20E2Bβ-4-G6-IR]
